Common to all, as to experiment: Kd (EC50 corrected by depletion factor)
For one data set, the target named is T1, CELF1 (UniProt Q92879).
T1 sequence: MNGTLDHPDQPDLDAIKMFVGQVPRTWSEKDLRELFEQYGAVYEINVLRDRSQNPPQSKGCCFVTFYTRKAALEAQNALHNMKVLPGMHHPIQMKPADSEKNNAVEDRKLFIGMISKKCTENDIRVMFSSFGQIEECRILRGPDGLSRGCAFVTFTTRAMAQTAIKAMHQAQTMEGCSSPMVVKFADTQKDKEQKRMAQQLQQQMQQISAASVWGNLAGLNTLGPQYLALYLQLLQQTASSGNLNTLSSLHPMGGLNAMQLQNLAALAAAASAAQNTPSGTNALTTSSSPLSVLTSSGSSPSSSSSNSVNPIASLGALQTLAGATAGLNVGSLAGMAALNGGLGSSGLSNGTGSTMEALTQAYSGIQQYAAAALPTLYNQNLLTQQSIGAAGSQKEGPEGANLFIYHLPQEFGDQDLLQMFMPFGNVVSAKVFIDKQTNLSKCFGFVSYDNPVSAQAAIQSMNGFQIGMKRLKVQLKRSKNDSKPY
As for the experimental part: (§1)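 Competition-binding assay: HEK293-FT cell lysate (2.5 mg protein) pre-incubated 1 h at 4°C with free motif-containing RNA oligos (0 to 30 µM, 12 doses), then pulled down with the same 5'-amino-C6 RNA oligos immobilised on NHS-Sepharose beads (30 min, 4°C). Bound proteins were quantified by label-free LC-MS/MS and normalised to the water control. EC50 came from a four-parameter log-logistic fit; Kd = EC50 x depletion factor. Random/reversed control probes are dropped.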

In another data set the target is DHX15 (UniProt O43143). The procedure:
as §1

Another data set concerns the target T2, LIN28B (UniProt Q6ZN17).
T2 sequence: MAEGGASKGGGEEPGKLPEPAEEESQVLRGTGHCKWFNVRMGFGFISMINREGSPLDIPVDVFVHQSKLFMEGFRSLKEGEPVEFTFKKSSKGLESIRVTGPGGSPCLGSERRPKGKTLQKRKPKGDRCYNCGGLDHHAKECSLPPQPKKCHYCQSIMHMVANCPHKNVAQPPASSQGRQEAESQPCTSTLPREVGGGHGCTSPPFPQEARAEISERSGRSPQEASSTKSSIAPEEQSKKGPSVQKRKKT
The procedure:
as §1

The next data set addresses T3, RTCA (UniProt O00442).
T3 sequence: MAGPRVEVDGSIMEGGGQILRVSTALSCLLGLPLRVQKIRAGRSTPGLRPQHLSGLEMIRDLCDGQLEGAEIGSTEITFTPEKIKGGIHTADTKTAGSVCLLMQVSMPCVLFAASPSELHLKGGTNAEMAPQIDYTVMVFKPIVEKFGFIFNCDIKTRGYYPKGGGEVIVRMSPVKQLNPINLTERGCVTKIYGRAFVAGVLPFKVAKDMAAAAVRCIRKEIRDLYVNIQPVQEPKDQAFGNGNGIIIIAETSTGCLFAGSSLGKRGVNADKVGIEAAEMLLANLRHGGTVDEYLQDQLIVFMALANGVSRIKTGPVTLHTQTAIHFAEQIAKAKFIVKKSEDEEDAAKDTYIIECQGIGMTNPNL
The procedure:
as §1

Another data set addresses T4, SSB (UniProt P05455).
T4 sequence: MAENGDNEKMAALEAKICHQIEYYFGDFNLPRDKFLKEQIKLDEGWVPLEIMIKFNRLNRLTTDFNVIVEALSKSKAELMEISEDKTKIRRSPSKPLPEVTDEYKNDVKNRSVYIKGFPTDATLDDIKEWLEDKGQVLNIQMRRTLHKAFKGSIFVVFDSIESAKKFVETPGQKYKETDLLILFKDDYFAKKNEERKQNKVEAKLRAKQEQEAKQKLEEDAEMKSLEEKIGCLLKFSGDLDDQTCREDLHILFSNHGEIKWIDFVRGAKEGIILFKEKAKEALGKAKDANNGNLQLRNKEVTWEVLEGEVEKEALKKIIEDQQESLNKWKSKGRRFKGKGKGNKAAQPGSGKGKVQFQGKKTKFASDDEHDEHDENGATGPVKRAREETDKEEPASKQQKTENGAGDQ
The procedure:
as §1

Another data set has as its target T5, XRN2 (UniProt Q9H0D6).
T5 sequence: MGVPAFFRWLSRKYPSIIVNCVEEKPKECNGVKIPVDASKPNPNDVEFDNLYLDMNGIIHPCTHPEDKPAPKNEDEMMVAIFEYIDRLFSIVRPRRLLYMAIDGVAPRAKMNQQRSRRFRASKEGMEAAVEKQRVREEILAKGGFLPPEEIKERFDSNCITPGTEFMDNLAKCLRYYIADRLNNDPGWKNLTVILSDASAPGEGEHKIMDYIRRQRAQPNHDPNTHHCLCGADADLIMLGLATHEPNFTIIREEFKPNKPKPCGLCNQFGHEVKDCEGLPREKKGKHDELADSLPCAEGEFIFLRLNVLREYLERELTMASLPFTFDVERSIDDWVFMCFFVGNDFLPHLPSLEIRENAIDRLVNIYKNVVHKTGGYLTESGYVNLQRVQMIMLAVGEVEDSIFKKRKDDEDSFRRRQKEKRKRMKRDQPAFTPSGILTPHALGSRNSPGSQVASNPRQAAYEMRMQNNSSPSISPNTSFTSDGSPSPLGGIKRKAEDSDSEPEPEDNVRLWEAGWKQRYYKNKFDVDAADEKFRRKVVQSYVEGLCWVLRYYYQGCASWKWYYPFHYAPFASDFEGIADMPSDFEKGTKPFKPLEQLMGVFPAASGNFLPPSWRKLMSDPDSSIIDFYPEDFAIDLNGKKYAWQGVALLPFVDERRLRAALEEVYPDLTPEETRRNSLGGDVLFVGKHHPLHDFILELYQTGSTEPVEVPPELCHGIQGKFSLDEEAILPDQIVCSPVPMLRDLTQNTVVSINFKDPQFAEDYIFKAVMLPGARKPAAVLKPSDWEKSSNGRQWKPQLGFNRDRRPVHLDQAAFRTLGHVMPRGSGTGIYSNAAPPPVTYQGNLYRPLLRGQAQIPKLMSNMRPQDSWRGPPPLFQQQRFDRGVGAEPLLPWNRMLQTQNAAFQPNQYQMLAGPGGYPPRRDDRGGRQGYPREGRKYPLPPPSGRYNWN
The procedure:
as §1

A further data set deals with ZC3HAV1 (UniProt Q7Z2W4). The procedure: as §1

The values below come from the supplement of paper PMC6379048.

ZC3HAV1, sequence (Q7Z2W4 whole entry): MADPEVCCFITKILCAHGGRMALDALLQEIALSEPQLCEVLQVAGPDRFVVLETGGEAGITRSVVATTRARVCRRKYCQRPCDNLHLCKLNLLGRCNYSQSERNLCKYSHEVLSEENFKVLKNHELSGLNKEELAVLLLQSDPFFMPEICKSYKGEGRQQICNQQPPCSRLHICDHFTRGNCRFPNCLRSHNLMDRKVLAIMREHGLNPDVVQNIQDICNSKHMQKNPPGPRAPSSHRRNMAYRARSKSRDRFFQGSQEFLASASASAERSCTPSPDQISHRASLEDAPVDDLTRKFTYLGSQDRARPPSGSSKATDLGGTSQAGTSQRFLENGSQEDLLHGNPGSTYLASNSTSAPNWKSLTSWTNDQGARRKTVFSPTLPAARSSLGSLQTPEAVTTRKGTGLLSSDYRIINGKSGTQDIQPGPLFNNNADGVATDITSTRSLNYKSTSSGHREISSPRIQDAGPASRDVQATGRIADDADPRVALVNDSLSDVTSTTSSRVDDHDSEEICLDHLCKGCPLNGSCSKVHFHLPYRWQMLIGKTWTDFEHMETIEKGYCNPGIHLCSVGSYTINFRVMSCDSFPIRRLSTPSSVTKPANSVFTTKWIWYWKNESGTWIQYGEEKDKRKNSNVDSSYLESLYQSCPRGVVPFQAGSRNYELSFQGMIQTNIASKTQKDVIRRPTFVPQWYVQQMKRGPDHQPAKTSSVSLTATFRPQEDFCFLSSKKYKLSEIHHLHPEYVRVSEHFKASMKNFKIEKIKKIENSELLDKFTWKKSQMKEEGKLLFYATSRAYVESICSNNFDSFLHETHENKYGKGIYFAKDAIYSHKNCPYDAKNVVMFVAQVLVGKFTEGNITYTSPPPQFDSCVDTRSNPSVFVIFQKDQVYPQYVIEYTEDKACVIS
DHX15, sequence (O43143 whole entry): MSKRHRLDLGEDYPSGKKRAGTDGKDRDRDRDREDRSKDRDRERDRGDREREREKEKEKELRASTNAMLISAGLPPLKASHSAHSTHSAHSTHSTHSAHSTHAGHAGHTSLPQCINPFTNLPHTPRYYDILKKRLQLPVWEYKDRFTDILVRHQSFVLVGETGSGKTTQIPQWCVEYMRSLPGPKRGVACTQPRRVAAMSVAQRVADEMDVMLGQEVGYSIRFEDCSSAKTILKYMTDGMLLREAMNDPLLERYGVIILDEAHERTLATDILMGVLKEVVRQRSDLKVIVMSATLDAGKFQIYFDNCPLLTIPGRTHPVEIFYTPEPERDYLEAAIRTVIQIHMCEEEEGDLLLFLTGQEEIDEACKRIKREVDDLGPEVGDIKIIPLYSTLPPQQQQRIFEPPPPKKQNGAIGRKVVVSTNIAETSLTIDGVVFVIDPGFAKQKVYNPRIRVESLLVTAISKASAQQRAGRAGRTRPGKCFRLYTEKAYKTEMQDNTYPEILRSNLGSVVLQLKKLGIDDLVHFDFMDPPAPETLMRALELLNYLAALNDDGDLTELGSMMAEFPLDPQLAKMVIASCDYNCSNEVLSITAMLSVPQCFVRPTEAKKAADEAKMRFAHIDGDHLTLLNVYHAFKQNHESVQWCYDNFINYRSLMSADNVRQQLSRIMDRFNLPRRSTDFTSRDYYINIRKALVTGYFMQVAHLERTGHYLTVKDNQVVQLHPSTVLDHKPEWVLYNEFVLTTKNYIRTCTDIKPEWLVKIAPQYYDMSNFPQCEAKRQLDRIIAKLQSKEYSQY

The term Kd denotes the concentration at which binding is half-saturated. Higher therefore signals a looser complex. As to AAUAAA, the Kd with CELF1 came out at 162 nM; with DHX15 it was 446 nM; in the data set with LIN28B, 610 nM; with RTCA it was 81.1 nM; in the data set with SSB, 365 nM; with XRN2 it was 354 nM. The same sequence showed a Kd with ZC3HAV1 of 776 nM.
Turning to CUGUCCU, the Kd in the data set with CELF1 stood at 3660 nM; with DHX15 it was 358 nM; with LIN28B, 1220 nM; in the data set with RTCA, 990 nM; with SSB it was 1060 nM; with XRN2, 80.8 nM. The sequence further registered a Kd in the data set with ZC3HAV1 of 867 nM.
Regarding UAUUUAU, the Kd was 350 nM with CELF1; 157 nM with DHX15; 1100 nM in the data set with LIN28B; 273 nM with RTCA; 289 nM with SSB; 184 nM with XRN2. In the data set with ZC3HAV1, this sequence yielded a Kd of 4310 nM.
